Laboratory results taken from IntAct's records for PubMed 21063388.

B1: Trinucleotide repeat-containing gene 6A protein (Homo sapiens), Q8NDV7 (parent)
chain: MRELEAKATKDVERNLSRDLVQEEEQLMEEKKKKKDDKKKKEAAQKKATEQKIKVPEQIKPSVSQPQPANSNNGTSTATSTNNNAKRATANNQQPQQQQQQQQPQQQQPQQQPQPQPQQQQPQQQPQALPRYPREVPPRFRHQEHKQLLKRGQHFPVIAANLGSAVKVLNSQSESSALTNQQPQNNGEVQNSKNQSDINHSTSGSHYENSQRGPVSSTSDSSTNCKNAVVSDLSEKEAWPSAPGSDPELASECMDADSASSSESERNITIMASGNTGGEKDGLRNSTGLGSQNKFVVGSSSNNVGHGSSTGPWGFSHGAIISTCQVSVDAPESKSESSNNRMNAWGTVSSSSNGGLNPSTLNSASNHGAWPVLENNGLALKGPVGSGSSGINIQCSTIGQMPNNQSINSKVSGGSTHGTWGSLQETCESEVSGTQKVSFSGQPQNITTEMTGPNNTTNFMTSSLPNSGSVQNNELPSSNTGAWRVSTMNHPQMQAPSGMNGTSLSHLSNGESKSGGSYGTTWGAYGSNYSGDKCSGPNGQANGDTVNATLMQPGVNGPMGTNFQVNTNKGGGVWESGAANSQSTSWGSGNGANSGGSRRGWGTPAQNTGTNLPSVEWNKLPSNQHSNDSANGNGKTFTNGWKSTEEEDQGSATSQTNEQSSVWAKTGGTVESDGSTESTGRLEEKGTGESQSRDRRKIDQHTLLQSIVNRTDLDPRVLSNSGWGQTPIKQNTAWDTETSPRGERKTDNGTEAWGSSATQTFNSGACIDKTSPNGNDTSSVSGWGDPKPALRWGDSKGSNCQGGWEDDSAATGMVKSNQWGNCKEEKAAWNDSQKNKQGWGDGQKSSQGWSVSASDNWGETSRNNHWGEANKKSSSGGSDSDRSVSGWNELGKTSSFTWGNNINPNNSSGWDESSKPTPSQGWGDPPKSNQSLGWGDSSKPVSSPDWNKQQDIVGSWGIPPATGKPPGTGWLGGPIPAPAKEEEPTGWEEPSPESIRRKMEIDDGTSAWGDPSKYNYKNVNMWNKNVPNGNSRSDQQAQVHQLLTPASAISNKEASSGSGWGEPWGEPSTPATTVDNGTSAWGKPIDSGPSWGEPIAAASSTSTWGSSSVGPQALSKSGPKSMQDGWCGDDMPLPGNRPTGWEEEEDVEIGMWNSNSSQELNSSLNWPPYTKKMSSKGLSGKKRRRERGMMKGGNKQEEAWINPFVKQFSNISFSRDSPEENVQSNKMDLSGGMLQDKRMEIDKHSLNIGDYNRTVGKGPGSRPQISKESSMERNPYFDKDGIVADESQNMQFMSSQSMKLPPSNSALPNQALGSIAGLGMQNLNSVRQNGNPSMFGVGNTAAQPRGMQQPPAQPLSSSQPNLRAQVPPPLLSPQVPVSLLKYAPNNGGLNPLFGPQQVAMLNQLSQLNQLSQISQLQRLLAQQQRAQSQRSVPSGNRPQQDQQGRPLSVQQQMMQQSRQLDPNLLVKQQTPPSQQQPLHQPAMKSFLDNVMPHTTPELQKGPSPINAFSNFPIGLNSNLNVNMDMNSIKEPQSRLRKWTTVDSISVNTSLDQNSSKHGAISSGFRLEESPFVPYDFMNSSTSPASPPGSIGDGWPRAKSPNGSSSVNWPPEFRPGEPWKGYPNIDPETDPYVTPGSVINNLSINTVREVDHLRDRNSGSSSSLNTTLPSTSAWSSIRASNYNVPLSSTAQSTSARNSDSKLTWSPGSVTNTSLAHELWKVPLPPKNITAPSRPPPGLTGQKPPLSTWDNSPLRIGGGWGNSDARYTPGSSWGESSSGRITNWLVLKNLTPQIDGSTLRTLCMQHGPLITFHLNLPHGNALVRYSSKEEVVKAQKSLHMCVLGNTTILAEFASEEEISRFFAQSQSLTPSPGWQSLGSSQSRLGSLDCSHSFSSRTDLNHWNGAGLSGTNCGDLHGTSLWGTPHYSTSLWGPPSSSDPRGISSPSPINAFLSVDHLGGGGESM
B2: Trinucleotide repeat-containing gene 6C protein (Homo sapiens), Q9HCJ0-1 (parent)
chain: MATGSAQGNFTGHTKKTNGNNGTNGALVQSPSNQSALGAGGANSNGSAARVWGVATGSSSGLAHCSVSGGDGKMDTMIGDGRSQNCWGASNSNAGINLNLNPNANPAAWPVLGHEGTVATGNPSSICSPVSAIGQNMGNQNGNPTGTLGAWGNLLPQESTEPQTSTSQNVSFSAQPQNLNTDGPNNTNPMNSSPNPINAMQTNGLPNWGMAVGMGAIIPPHLQGLPGANGSSVSQVSGGSAEGISNSVWGLSPGNPATGNSNSGFSQGNGDTVNSALSAKQNGSSSAVQKEGSGGNAWDSGPPAGPGILAWGRGSGNNGVGNIHSGAWGHPSRSTSNGVNGEWGKPPNQHSNSDINGKGSTGWESPSVTSQNPTVQPGGEHMNSWAKAASSGTTASEGSSDGSGNHNEGSTGREGTGEGRRRDKGIIDQGHIQLPRNDLDPRVLSNTGWGQTPVKQNTAWEFEESPRSERKNDNGTEAWGCAATQASNSGGKNDGSIMNSTNTSSVSGWVNAPPAAVPANTGWGDSNNKAPSGPGVWGDSISSTAVSTAAAAKSGHAWSGAANQEDKSPTWGEPPKPKSQHWGDGQRSNPAWSAGGGDWADSSSVLGHLGDGKKNGSGWDADSNRSGSGWNDTTRSGNSGWGNSTNTKANPGTNWGETLKPGPQQNWASKPQDNNVSNWGGAASVKQTGTGWIGGPVPVKQKDSSEATGWEEPSPPSIRRKMEIDDGTSAWGDPSNYNNKTVNMWDRNNPVIQSSTTTNTTTTTTTTTSNTTHRVETPPPHQAGTQLNRSPLLGPGRKVSSGWGEMPNVHSKTENSWGEPSSPSTLVDNGTAAWGKPPSSGSGWGDHPAEPPVAFGRAGAPVAASALCKPASKSMQEGWGSGGDEMNLSTSQWEDEEGDVWNNAASQESTSSCSSWGNAPKKGLQKGMKTSGKQDEAWIMSRLIKQLTDMGFPREPAEEALKSNNMNLDQAMSALLEKKVDVDKRGLGVTDHNGMAAKPLGCRPPISKESSVDRPTFLDKDGGLVEEPTPSPFLPSPSLKLPLSHSALPSQALGGIASGLGMQNLNSSRQIPSGNLGMFGNSGAAQARTMQQPPQPPVQPLNSSQPSLRAQVPQFLSPQVQAQLLQFAAKNIGLNPALLTSPINPQHMTMLNQLYQLQLAYQRLQIQQQMLQAQRNVSGSMRQQEQQVARTITNLQQQIQQHQRQLAQALLVKQPPPPPPPPHLSLHPSAGKSAMDSFPSHPQTPGLPDLQTKEQQSSPNTFAPYPLAGLNPNMNVNSMDMTGGLSVKDPSQSQSRLPQWTHPNSMDNLPSAASPLEQNPSKHGAIPGGLSIGPPGKSSIDDSYGRYDLIQNSESPASPPVAVPHSWSRAKSDSDKISNGSSINWPPEFHPGVPWKGLQNIDPENDPDVTPGSVPTGPTINTTIQDVNRYLLKSGGKLSDIKSTWSSGPTSHTQASLSHELWKVPRNSTAPTRPPPGLTNPKPSSTWGASPLGWTSSYSSGSAWSTDTSGRTSSWLVLRNLTPQIDGSTLRTLCLQHGPLITFHLNLTQGNAVVRYSSKEEAAKAQKSLHMCVLGNTTILAEFAGEEEVNRFLAQGQALPPTSSWQSSSASSQPRLSAAGSSHGLVRSDAGHWNAPCLGGKGSSELLWGGVPQYSSSLWGPPSADDSRVIGSPTPLTTLLPGDLLSGESL
B3: Protein Gawky (Drosophila melanogaster (Fruit fly)), Q8SY33 (parent)
chain: MREALFSQDGWGCQHVNQDTNWEVPSSPEPANKDAPGPPMWKPSINNGTDLWESNLRNGGQPAAQQVPKPSWGHTPSSNLGGTWGEDDDGADSSSVWTGGAVSNAGSGAAVGVNQAGVNVGPGGVVSSGGPQWGQGVVGVGLGSTGGNGSSNITGSSGVATGSSGNSSNAGNGWGDPREIRPLGVGGSMDIRNVEHRGGNGSGATSSDPRDIRMIDPRDPIRGDPRGISGRLNGTSEMWGHHPQMSHNQLQGINKMVGQSVATASTSVGTSGSGIGPGGPGPSTVSGNIPTQWGPAQPVSVGVSGPKDMSKQISGWEEPSPPPQRRSIPNYDDGTSLWGQQTRVPAASGHWKDMTDSIGRSSHLMRGQSQTGGIGIAGVGNSNVPVGANPSNPISSVVGPQARIPSVGGVQHKPDGGAMWVHSGNVGGRNNVAAVTTWGDDTHSVNVGAPSSGSVSSNNWVDDKSNSTLAQNSWSDPAPVGVSWGNKQSKPPSNSASSGWSTAAGVVDGVDLGSEWNTHGGIIGKSQQQQKLAGLNVGMVNVINAEIIKQSKQYRILVENGFKKEDVERALVIANMNIEEAADMLRANSSLSMDGWRRHDESLGSYADHNSSTSSGGFAGRYPVNSGQPSMSFPHNNLMNNMGGTAVTGGNNNTNMTALQVQKYLNQGQHGVAVGPQAVGNSSAVSVGFGQNTSNAAVAGAASVNIAANTNNQPSGQQIRMLGQQIQLAIHSGFISSQILTQPLTQTTLNLLNQLLSNIKHLQAAQQSLTRGGNVNPMAVNVAISKYKQQIQNLQNQINAQQAVYVKQQNMQPTSQQQQPQQQQLPSVHLSNSGNDYLRGHDAINNLQSNFSELNINKPSGYQGASNQQSRLNQWKLPVLDKEINSDSTEFSRAPGATKQNLTANTSNINSLGLQNDSTWSTGRSIGDGWPDPSSDNENKDWSVAQPTSAATAYTDLVQEFEPGKPWKGSQIKSIEDDPSITPGSVARSPLSINSTPKDADIFANTGKNSPTDLPPLSLSSSTWSFNPNQNYPSHSWSDNSQQCTATSELWTSPLNKSSSRGPPPGLTANSNKSANSNASTPTTITGGANGWLQPRSGGVQTTNTNWTGGNTTWGSSWLLLKNLTAQIDGPTLRTLCMQHGPLVSFHPYLNQGIALCKYTTREEANKAQMALNNCVLANTTIFAESPSENEVQSIMQHLPQTPSSTSSSGTSGGNVGGVGTSANNANSGSAACLSGNNSGNGNGSASGAGSGNNGNSSCNNSAAGGGSSSNNTITTVANSNLVGSSGSVSNSSGVTANSSTVSVVSCTASGNSINGAGTANSSGSKSSANNLASGQSSASNLTNSTNSTWRQTSQNQALQSQSRPSGREADFDYISLVYSIVDD

Variants of: B1
Conditions: with pabp_drome pAbp
Target sequence in this assay (P21187 whole entry): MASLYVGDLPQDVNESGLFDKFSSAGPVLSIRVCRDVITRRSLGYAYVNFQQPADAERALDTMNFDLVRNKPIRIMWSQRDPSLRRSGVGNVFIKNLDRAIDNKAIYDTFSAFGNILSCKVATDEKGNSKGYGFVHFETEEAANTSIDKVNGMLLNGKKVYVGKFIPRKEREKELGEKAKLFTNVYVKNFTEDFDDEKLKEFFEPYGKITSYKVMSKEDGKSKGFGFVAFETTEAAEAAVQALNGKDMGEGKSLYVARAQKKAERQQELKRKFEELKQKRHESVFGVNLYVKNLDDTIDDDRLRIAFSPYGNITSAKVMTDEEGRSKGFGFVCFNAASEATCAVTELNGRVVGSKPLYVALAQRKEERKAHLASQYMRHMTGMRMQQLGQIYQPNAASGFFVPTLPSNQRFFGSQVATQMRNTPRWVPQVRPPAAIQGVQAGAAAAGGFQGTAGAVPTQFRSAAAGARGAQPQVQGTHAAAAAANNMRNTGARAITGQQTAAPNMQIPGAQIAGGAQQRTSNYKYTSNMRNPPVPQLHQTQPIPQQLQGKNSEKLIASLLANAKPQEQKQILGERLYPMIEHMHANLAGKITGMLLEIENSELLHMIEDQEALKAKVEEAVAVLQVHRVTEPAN

Row | Variant | effect of a mutation on the interaction
1 | F1612A | disrupting interaction

Variants of: B1
Conditions: with pabp1_human PABPC1, P11940
Target sequence in this assay (P11940 whole entry): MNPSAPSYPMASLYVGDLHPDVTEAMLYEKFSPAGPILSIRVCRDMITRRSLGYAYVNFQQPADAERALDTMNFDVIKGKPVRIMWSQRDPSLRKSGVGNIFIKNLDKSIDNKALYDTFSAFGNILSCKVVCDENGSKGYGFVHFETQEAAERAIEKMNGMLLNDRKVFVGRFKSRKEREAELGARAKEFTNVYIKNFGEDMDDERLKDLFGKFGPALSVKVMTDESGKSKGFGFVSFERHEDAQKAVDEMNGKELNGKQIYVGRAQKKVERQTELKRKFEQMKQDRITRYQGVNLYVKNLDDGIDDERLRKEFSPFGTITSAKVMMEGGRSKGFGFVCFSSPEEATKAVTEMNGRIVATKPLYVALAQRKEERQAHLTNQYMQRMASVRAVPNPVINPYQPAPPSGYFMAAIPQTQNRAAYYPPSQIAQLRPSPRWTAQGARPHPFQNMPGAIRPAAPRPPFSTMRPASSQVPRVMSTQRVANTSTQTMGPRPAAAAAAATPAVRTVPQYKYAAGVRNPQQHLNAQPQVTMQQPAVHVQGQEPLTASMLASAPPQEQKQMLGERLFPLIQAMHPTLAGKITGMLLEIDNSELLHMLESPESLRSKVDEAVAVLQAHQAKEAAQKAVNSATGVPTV

Row | Variant | effect of a mutation on the interaction
2 | F1612A | disrupting interaction

Variants of: B2
Conditions: with pabp_drome pAbp
Target sequence in this assay (P21187 whole entry): as the sequence (P21187 whole entry) above

Row | Variant | effect of a mutation on the interaction
3 | F1389A | disrupting interaction

Variants of: B2
Conditions: with pabp1_human PABPC1, P11940
Target sequence in this assay (P11940 whole entry): as the sequence (P11940 whole entry) above

Row | Variant | effect of a mutation on the interaction
4 | F1389A | disrupting interaction

Variants of: B3
Conditions: with pabp_drome pAbp
Target sequence in this assay (P21187 whole entry): as the sequence (P21187 whole entry) above

Row | Variant | effect of a mutation on the interaction
5 | F961A | disrupting interaction

Variants of: B3
Conditions: with pabp_drome pAbp
Remark: another data set of the same source
Target sequence in this assay (P21187 whole entry): as above

Row | Variant | effect of a mutation on the interaction
6 | E962Q | increasing interaction

Variants of: B3
Conditions: with pabp_drome pAbp
Remark: another data set of the same source
Target sequence in this assay (P21187 whole entry): as above

Row | Variant | effect of a mutation on the interaction
7 | V958P | increasing interaction
8 | Q959P | increasing interaction
